Assay: soluble on expression in E. coli; label from the status in PepcDB or PDB records
With “MVRRIAVFSLYNEHGIADDYVIFLLEKLREFVERIVVVSNGNLSKLSEIAIKASCDQLLVRENVGFDVWGYKTGIDAVGFDALSEYDELILLNDTCYGPLFPFSEMFSEMERRDCDFWGSAAHSKMTPNPFTGTGHLPRHLTANFIAVREKMLKSRAFKTYWENLPAIKTYIDAIMLHESQFTKHFTDLGYSAEAYVDPDKYGSHYPAFINVDETIINRFPLLKRRPFFHDPTFLNAQGIDLPRALRVLEETSDYDLNLIWRNVLRTSELRNLNTNAALMSVLPDERAKDDDAPSDYGKIAVCAHIYYTDMLEEILALTGNIPVPYDFIATTDTPDKKAEIEATLAKRPGVKNVIVRVVEKNRGRDMSSLFISLRDLLVDDRYDLVCRLHTKKSPQVQASRSNLFKRHMLENLLNTRGYVHNVLDMFHDNPSVGLAVPPVVHISYPTMGHAWFFNRPKVEETARLLNIKVKFDHDTPVAAYGTMFWFRPRALRKMFEHKWKWEDFNAEPNHVDGGLAHVLERLIAYAAQDAGYLEHHHHHH” the “soluble on expression in E. coli” value was “soluble”.
In the case of “MSLITCSKCSRRAVIFQRHANRHLCKRHFIEDFERRVKLAVKKYDMIQKGDRIAIALSGGKDSVTLAFVLNKLYGFRSDLEFFAITIDEGIAGYRPPTVEIARKVTEQLGMEHLVVSFEENFGMTLDEMVKRGDKKPCTYCGVFRKYLLNRTAREMGATKLATGHNLDDETQTILLNFLNADMERMARLVPQRVQEGLVVRIKPFRYVYEKEVVVYGFLHELPMDFDECPYSHFPVRAAVRDFLYDFENKYPGRKFSVMSSFEKLIPCLKEIYPQIDLNRCERCGEPTPRRICQACKLLEELRGVDEGHHHHHH”, the “soluble on expression in E. coli” value is reported as “not soluble”.
In the case of “SSLVRRIISTAKAPAAIGPYSQAVLVDRTIYISGQLGMDPASGQLVPGGVVEEAKQALTNIGEILKAAGCDFTNVVKATVLLADINDFSAVNDVYKQYFQSSFPARAAYQVAALPKGGRVEIEAIAVQGPLTTASL”, the “soluble on expression in E. coli” value is reported as “soluble”.
For “MGSDKIHHHHHHAGFIFLPKENETASTTVEEVKWLTYDQAVALSKKNPKPIFIDVYTDWCGWCKTMDKNTFSNHKVAAYLNKRFYSVKLNPEKKDTVHYKGVAMTNGALAGKIFHATSYPTTVYLEGDETLLQPIPGYQAPNDLYRIIHYIGENHYKTTTWDDFSKSFNESAE”, the “soluble on expression in E. coli” value was “not soluble”.
For “SSWFRAAPENASPGDQDVFDEEADESLLAQREWQGHMRKRVQEGYRDGLDAGKALTLQRGFNQGYKEGADVIINYGLLRGTLSALLSWCHLHGNSSTLISKISNLLDTVDQCEECVLRRLKSVTSQPRVTDLLDAIEDMDLCHVVPSDQAKGDSNAEINTDSDSPNGMGCSHPEHCRPKEHAHLEKPSLSWILEQTSSLVKQLGVPADILQHLRQL”, the “soluble on expression in E. coli” value was “soluble”.
For “MPDPLTVSGSFSPEDVKHIGLKSIISGQIIKKYSQNQNLRSIKNVKLIIPSKAVSVDRNERTLFIPCLKLLLNYRFSNNFNKVSQIEIDNVYAYVAVVFPDEEPESFGYYIGVDRNTMGHIAVVADPDSGKVWKLGKMRYHIHQKYQNIMNRLSNSGKNKQLKAVKKREKNIVKDLNHKISRKIVDLALYNGSGIKLENLKGIRKLNSKSNGAGKGKPDQNKDKKLTCSNEYSLNNWSFLQLQQFIEYKARLRGVEVVYIDPYATSKKCSRCGHTGNRQSKRFECPCCGHVDHADVNAAFNIALTPKDTGQFSAERDAGKGRTDTPQKVLARNAFSKRAAREKASPQFAWEVCQFLTLEHHHHHH”, the “soluble on expression in E. coli” value was “not soluble”.
With “MRVLLIEKNSVLGGEIEKGLNVKGFMADVTESLEDGEYLMDIRNYDLVMVSDKNALSFVSRIKEKHSSIVVLVSSDNPTSEEEVHAFEQGADDYIAKPYRSIKALVARIEARLRFWGSNVIEIGDLTISPDEEKIIYKGREVEVKGKPFEVLTHLARHRDQIVSKEQLLDAIWEEPEMVTPNVIEVAINQIRQKMDKPLGISTVETVRRRGYRFCYPKPACEE” the “soluble on expression in E. coli” value was “soluble”.
For “MAEEQQNSDQSNGGNVIPTPEEVATFLHKTVEEGGWEKCWEEEITPWDQGRATPLIVHLVDTSSLPLGRALVPGCGGGHDVVAMASPERFVVGLDISESALAKANETYGSSPKAEYFSFVKEDVFTWRPTELFDLIFDYVFFCAIEPEMRPAWAKSMYELLKPDGELITLMYPITDHVGGPPYKVDVSTFEEVLVPIGFKAVSVEENPHAIPTRKGKEKLGRWKKIN”, the “soluble on expression in E. coli” value was “not soluble”.
For “MGSDKIHHHHHHMLITETFHDVQTSYGTTLRIYVYSPKIAGYPQAKFPGVILYSEIYQVTGPVRRFGQRIASEGYVVVAPAIYHNFMGPEALPYDVQGTDIGNEYKIKKPLESYDEDNKLCCDLLFQLPQFDGKRIGSTGMCLGGHLAFRALLDKRVTCATCFFPTDIHSRTLGLGQNDNSLERVSKELGNNQEMVLIFGTADTHVDPQGRDLIRKTLRDHGVKFTFLEILAAQHAFIRDEFSKGRFDSAITQSCLGFLFEQFNRKLRIDLGEFVDDNTPLEHVC”, the “soluble on expression in E. coli” value was “not soluble”.
With “MININRYTLSNGLRVIHNEDNTTQMVALNLLYDVGARDEDPDHTGFAHLFEHLMFGGSIHVPDYDTPVQNAGGENNAWTNNDITNYYITLPRQNVETGFWLESDRMLSLDFNPRSLEVQRQVVIEEFKQRNLNQPYGDASHLLRALAYKVHPYQWPTIGKEISHIANATLEEVKAFFFKYYAPDNAILAVTGHITFEETVTLAEKWFGPIPRRNVAP” the “soluble on expression in E. coli” value was “not soluble”.
With “MGHHHHHHSHMAKTYDYLFKLLLIGDSGVGKTCVLFRFSEDAFNSTFISTIGIDFKIRTIELDGKRIKLQIWDTAGQERFRTITTAYYRGAMGIMLVYDITNEKSFDNIRNWIRNIEEHASADVEKMILGNKCDVNDKRQVSKERGEKLALDYGIKFMETSAKANINVENAFFTLARDIKAKMDKKLEGNSPQGSNQGVKITPDQQKRSSFFRCVLL” the “soluble on expression in E. coli” value was “soluble”.
In the case of “MSLTTMAEHFLTLLVVPAIKKDYGSQEDFTQVWNTTMKGLKCCGFTNYTDFEDSPYFKENSAFPPFCCNDNVTNTANETCTKQKAHDQKVEGCFNQLLYDIRTNAVTVGEGHHHHHH”, the “soluble on expression in E. coli” value is reported as “not soluble”.
In the case of “MGSDKIHHHHHHMDSIQESDVLNAVKTKLPPCCLRIFRNKIILVGTYDLDKSTGYRSGSLDVFTMDLKLLCSNNTYGAILDLKLSPFDDTLICTAHSTGNIMLWRIRCTDKDDFQSNELDIHAIANLQLFEKDVLIASCHFSPLDCKKLLVTNTAGEAATIDIRTLSVQFTASAIAQAYSKLDKIDYEVQGATEKVIHVESGQFLKPHELECWTAEFGSLQPFQDVVFTGGDDSRIMAHDLRSKEFIWSNNRIHDAGVVSIKCSQPNFRNNKPTSIITGSYDDNIRSLDLRMMGESIFPGANVPTVNKLACDLGGGVWRFVESPIDQEQSHHNGSDRLLVCCMYNGAKVVTMNDNSDEYFQIQHYLKKGHDSMCYGGDWSNSLIATCSFYDNSLQTWIV”, the “soluble on expression in E. coli” value is reported as “not soluble”.
For “MENKMVEYRKKFGLSQEKLAEKLGVSRQTIISIEKGKYDPSLPLAFEIAKTFQTTIEHVFIYEGKEGEE”, the “soluble on expression in E. coli” value was “not soluble”.
For “MSLKITAADVVVTSPGRNFVTLRITTEDGLTGLGDATLNGRELAVEAYLREHVAPLLLGRDAHAVEDTWQYLYRGAYWRRGPVTMAAVAAVDMALWDIKGKAAGMPVYQLLGGACRTGALAYGHASGRDIPELLDSVREHLADGFRAVRIQSGIPGLDSVYGVAASAAGDGDRYDYEPARRTGAAHPRPTEETWDTRAYLRHMPTVFEAVRHTFGPELPLLHDGHHRMTPIQAARLGKDLEPYDLFWLEDATPGEDQGALRLIREHTTTPLAIGEVFNSVHDYTTLLQERLIDYVRSAVTHTGGITAVRKLLDMAAVYGIKSGMHGPTDISPVGMAAALHLDLAVHNFGIQEYMRHAPDTLEVFRTSYRFEDGLLHPGEAPGLGVELDDGAAARFPYEPAYLPVNRLSDGTVHDWEGHHHHHH”, the “soluble on expression in E. coli” value was “not soluble”.
For “ITDRKVLERELATRNAFLTAVLQTSVSAIVALNAEGGIVYANDEARRLLVLQPHRGGLRMEAVLETLDGRPLPEADMPSALVRATGAPLHDLRYAIRRPDGQFGILSINAAPLPQAADDARIVISVTDIT”, the “soluble on expression in E. coli” value was “not soluble”.
For “GSMPKPGILKSKSMFCVIYRSSKRDQTYLYVEKKDDFSRVPEELMKGFGQPQLAMILPLDGRKKLVNADIEKVKQALTEQGYYLQLPPPPEDLLKQHLSVMGQKTDDTNK”, the “soluble on expression in E. coli” value was “soluble”.
For “MSLASTVVIKEGSGSGAVAACTVPQVLEQIAQSFPESIAAISERGRITFAELEFRSNQLARLLVKRGVKVGAIVVLMTGRSIDTLIGMTAILKAGGVYMPLDVGLGPEAISGAIQDAQPALVLTEHQPALIDAIEQRRLSDELDASRLEPGDPLALELTPSLPAYVMFTSGSTGRPKGVVVPHRAIVRLVVDTDFMTLSPATVMLHAAPLAFDASTLEIWGPLLNGGQIVIVEDAVLSVDRIAETLGRFSVNAAWLTAGLFHLMVDERPEALSGLTTLLAGGDVLSPAHVRRAMALLPDCTIVNGYGPTENTTFTCCYSIPRTGWGDGPVPIGFPISGTSVHILSDTLEPVADGEEGQLCAGGIGLALGYLNRPELTAEKFIVDPLSDDPAARLYLTGDYVRRRSDGAIEFRGRRDRQVKINGVRIELDGVEQALRQDPVLADAAVVLSADRGDAKRIVAFLKPLPGDAAGDLEAGVIRRLKEQFPAQAIPSTIKVVDELPLNKNGKIDRAKLLSDLIATEQLGAGTDEEDFSDDSVGSIVADIWSALLGKSVDARANLFDLGATSLQMIAAHERIQAAIGIRFPVTDLFAHPSIAEFQACLDGASHRSLAIAGAAREGHHHHHH”, the “soluble on expression in E. coli” value was “soluble”.
With “MNFHHLAYWQDKALSLAIENRLFINGEYTAAAENETFETVDPVTQAPLAKIARGKSVDIDRAMSAARGVFERGDWSLSSPAKRKAVLNKLADLMEAHAEELALLETLDTGKPIRHSLRDDIPGAARAIRWYAEAIDKVYGEVATTSSHELAMIVREPVGVIAAIVPWNFPLLLTCWKLGPALAAGNSVILKPSEKSPLSAIRLAGLAKEAGLPDGVLNVVTGFGHEAGQALSRHNDIDAIAFTGSTRTGKQLLKDAGDSNMKRVWLEAGGKSANIVFADCPDLQQAASATAAGIFYNQGQVCIAGTRLLLEESIADEFLALLKQQAQNWQPGHPLDPATTMGTLIDCAHADSVHSFIREGESKGQLLLDGRNAGLAAAIGPTIFVDVDPNASLSREEIFGPVLVVTRFTSEEQALQLANDSQYGLGAAVWTRDLSRAHRMSRRLKAGSVFVNNYNDGDMTVPFGGYKQSGNGRDKSLHALEKFTELKTIWISLEA” the “soluble on expression in E. coli” value was “soluble”.
With “MRRIDMRSWIQNTKKLLPDLLPVMQTRMQILQYIRLMQPIGRRNLSASLGMTERVLRSEVQVLKEQNLVHVASSGMTLTEEGTALVLALEDFMKEISGLKVLEKQLKETLDLDEVFVVPGDSDESPWVKLEMGRACVTCIKDRLTANNIVAVAGGTTLAAAADMMQLDCKDLHMLFVPARGGIGEGVELEANTICAKMAQNTMSNYRLLYVPDHVSSEAYASIVTEPSVKEVLELIRSSNIVIHGIGDALTMARRRSTSEADWLKIQASEAVGEAFGYYFNEEGNVVHKVRTVGMQLEDLQNVSHVVAVAGGSSKAKAIQAVIKQGHTSILITDEGAAKQLTKGFTL” the “soluble on expression in E. coli” value was “not soluble”.
With “MGSDKIHHHHHHMSKPSPRHLWHVQPGSNVITHPLKQSHYLNVELMSLEIVAEYPRPPALVACSDHVIVEALGTRICETHDCLRVLETFHPPTYYLPPKAMRKDLLIRSRRSSFCEWKGIANYWDLVIADKRLEGAIWSYPDPTPTFRALTGWYALYPGRMDHCSVNGETVIPQPGQFYGGWITSQVVGPFKGDPAHPQLI” the “soluble on expression in E. coli” value was “not soluble”.
For “MKDVVDKCSTKGCAIDIGTVIDNDNCTSKFSRFFATREEAESFMTKLKELAAAASSADEGASVAYKIKDLEGQVELDAAFTFSCQAEMIIFELSLRSLALEHHHHHH”, the “soluble on expression in E. coli” value was “not soluble”.
With “GHMHTPFIVALDFPSKQEVERFLRPFAGTPLFVKVGMELYYQEGPAIVAFLKEQGHAVFLDLKLHDIPNTVKQAMKGLARVGADLVNVHAAGGRRMMEAAIEGLDAGTPSGRMRPRCIAVTQLTSTDERMLHEELWISRPLVETVAHYAALAKESGLDGVVCSANEAAFIKERCGASFLAVTPGIRFADDAAHDQVRVVTPRKARALGSDYIVIGRSLTRAADPLRTYARLQHEWNGGERESTTPT” the “soluble on expression in E. coli” value was “soluble”.

From the DeepSol protein solubility set
